The text below walks through data of the supplement of paper PMC7877785.

This data set in a line: self-splicing fitness, log relative to wild type (ln ratio); higher = more splicing; Tetrahymena group I intron in knt gene, E. coli kanamycin selection, DiMSum; sequences stand for … in CUCUCU…GGAGGGAAAAGUUAUCAGGCAUGCACCUGGUAGCUAGUCUUUAAACCAAUAGAUUGCAUCGGUUUAAAAGGCAAGACCGUCAAAUUGCGGGAAAGGGGUCAACAGCCGUUCAGUACCAAGUCUCAGGGGAAACUUUGAGAUGGCCUUGCAAAGGGUAUGGUAAUAAGCUGACGGACAUGGUCCUAACCACGCAGCCAAGUCCUAAGUCAACAGAUCUUCUGUUGAUAUGGAUGCAGUUCACAGACUAAAUGUCGGUCGGGGAAGAUGUAUUCUUCUCAUAAGAUAUAGUCGGACCUCUCCUUAAUGGGAGCUAGCGGAUGAAGUGAUGCAACACUGGAGCCGCUGGGAACUAAUUUGUAUGCGAAAGUAUAUUGAUUAGUUUUGGAGUACUCGUGGUCG
In short, it runs like this:
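Six replicate transformations of E. coli BL21(DE3) with a pET-22b(+) library were grown overnight at 37°C or 30°C. The library randomised all eight P1ex-region intron nucleotides, the intron lying in the knt kanamycin-resistance gene, and plates were LB agar with or without 25 μg/mL kanamycin plus 100 μg/mL carbenicillin, 50 μM IPTG and 0.2% rhamnose. Pooled colonies were amplicon-sequenced on an Illumina HiSeq 2500, and fitness is the DiMSum error-weighted combination of wild-type-normalised replicate fold changes, kanamycin versus none.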

± gives the uncertainty stated by the source.

For the sequence GAGAAGCAAUAUUACGUCGG, the “self-splicing fitness (ln)” value (30 °C) was -3.32 ± 0.19 and the “self-splicing fitness (ln)” value (37 °C) was -2.35 ± 0.24.
As for CAGUAGCAAUAUUACGUCUG, the “self-splicing fitness (ln)” value is -3.23 ± 0.11 (30 °C) and -2.6 ± 0.13 (37 °C).
As for UAAUAGCAAUAUUACGGCUG, the “self-splicing fitness (ln)” value was -0.00933 ± 0.11 (30 °C) and -0.0273 ± 0.16 (37 °C).
On the same counts, the results for ACUCAGCAAUAUUACGCUCG are -0.26 ± 0.087 and 0.176 ± 0.12.
Consider AUGAAGCAAUAUUACGUCUG, for which the “self-splicing fitness (ln)” value by setting is: (30 °C) -0.0483 ± 0.061; (37 °C) 0.316 ± 0.079.
With GAUCAGCAAUAUUACGUCCG, the “self-splicing fitness (ln)” value (30 °C) is -3.26 ± 0.26 and the “self-splicing fitness (ln)” value (37 °C) was -1.66 ± 0.22.
For the sequence CACAAGCAAUAUUACGCUCG, the “self-splicing fitness (ln)” value by setting is: (30 °C) -0.562 ± 0.089; (37 °C) -0.27 ± 0.092.
With UCUUAGCAAUAUUACGCGUC, the “self-splicing fitness (ln)” value (30 °C) was -4.03 ± 0.33.
As for GUCAAGCAAUAUUACGGCCU, the “self-splicing fitness (ln)” value reads like this: (30 °C) -3.17 ± 0.22; (37 °C) -1.34 ± 0.21.
CACCAGCAAUAUUACGACUG: the “self-splicing fitness (ln)” value is, setting by setting: (30 °C) -0.642 ± 0.054; (37 °C) 0.144 ± 0.073.
With GUUUAGCAAUAUUACGUCUU, the “self-splicing fitness (ln)” value was -0.801 ± 0.11 (30 °C) and -0.25 ± 0.11 (37 °C).
With CUUCAGCAAUAUUACGUUUG, the “self-splicing fitness (ln)” value by setting is: (30 °C) -1.87 ± 0.082; (37 °C) -1.24 ± 0.091.
On the same counts, the results for UUGUAGCAAUAUUACGGAAU are -1.94 ± 0.15 and -3.26 ± 0.32.
For the sequence UCUCAGCAAUAUUACGCUUU, the “self-splicing fitness (ln)” value reads like this: (30 °C) -3.09 ± 0.3; (37 °C) -2.22 ± 0.31.
On the same counts, the results for ACCGAGCAAUAUUACGUUGC are -3.29 ± 0.32 and -1.33 ± 0.25.
On to GCAAAGCAAUAUUACGAGGG, for which the “self-splicing fitness (ln)” value (30 °C) was -3.02 ± 0.11 and the “self-splicing fitness (ln)” value (37 °C) is -1.55 ± 0.1.
For the sequence UCACAGCAAUAUUACGGUAU, the “self-splicing fitness (ln)” value (30 °C) is -3.42 ± 0.19 and the “self-splicing fitness (ln)” value (37 °C) is -3.05 ± 0.18.
Turning to UAUGAGCAAUAUUACGGGUU, the “self-splicing fitness (ln)” value (30 °C) is -4.04 ± 0.3 and the “self-splicing fitness (ln)” value (37 °C) is -2.41 ± 0.27.
On to AGGCAGCAAUAUUACGACAA, for which the “self-splicing fitness (ln)” value by setting is: (30 °C) -1.26 ± 0.14; (37 °C) -0.976 ± 0.13.
In the case of CAGGAGCAAUAUUACGGCAA, the “self-splicing fitness (ln)” value reads like this: (30 °C) -4.26 ± 0.32; (37 °C) -2.84 ± 0.33.
Turning to GAAUAGCAAUAUUACGCUCC, the “self-splicing fitness (ln)” value (37 °C) was -1.37 ± 0.33.
For the sequence GAGUAGCAAUAUUACGUGCC, the “self-splicing fitness (ln)” value runs as follows: (30 °C) -1.79 ± 0.23; (37 °C) -0.846 ± 0.18.
Turning to UUGGAGCAAUAUUACGCUGU, the “self-splicing fitness (ln)” value (30 °C) is -3.36 ± 0.41 and the “self-splicing fitness (ln)” value (37 °C) is -2.35 ± 0.37.
For UAUAAGCAAUAUUACGCCAC the same measures were -3.21 ± 0.43 and -1.21 ± 0.38.
On the same counts, the results for CAUAAGCAAUAUUACGCGAC are -3.45 ± 0.33 and -3.11 ± 0.4.
As for AAUGAGCAAUAUUACGGGGA, the “self-splicing fitness (ln)” value by setting is: (30 °C) -2.54 ± 0.17; (37 °C) -2.22 ± 0.25.
As for UAUAAGCAAUAUUACGCGUU, the “self-splicing fitness (ln)” value (30 °C) was -2.67 ± 0.14 and the “self-splicing fitness (ln)” value (37 °C) is -0.931 ± 0.12.
For AAUCAGCAAUAUUACGCUGC, the “self-splicing fitness (ln)” value is -3.58 ± 0.26 (30 °C) and -2.36 ± 0.19 (37 °C).
AUUCAGCAAUAUUACGCGUA: the “self-splicing fitness (ln)” value is -1.16 ± 0.086 (30 °C) and -0.145 ± 0.11 (37 °C).
On to GCCGAGCAAUAUUACGGCUG, for which the “self-splicing fitness (ln)” value (30 °C) is -3.31 ± 0.34 and the “self-splicing fitness (ln)” value (37 °C) is -2.96 ± 0.38.
Regarding UUAGAGCAAUAUUACGUAUU, the “self-splicing fitness (ln)” value by setting is: (30 °C) -5.06 ± 0.45; (37 °C) -2.91 ± 0.35.
For AAGGAGCAAUAUUACGUCAU the same measures were -3.84 ± 0.2 and -2.94 ± 0.24.
For GACCAGCAAUAUUACGGAUU the same measures were -0.723 ± 0.049 and -0.029 ± 0.062.
With UUACAGCAAUAUUACGGGCC, the “self-splicing fitness (ln)” value reads like this: (30 °C) -3.28 ± 0.19; (37 °C) -3.55 ± 0.42.
For CAUAAGCAAUAUUACGCCCG the same measures were -0.556 ± 0.16 and -0.0931 ± 0.22.
As for UGAUAGCAAUAUUACGGCUC, the “self-splicing fitness (ln)” value runs as follows: (30 °C) -2.21 ± 0.15; (37 °C) -1.29 ± 0.17.
For UAGCAGCAAUAUUACGUCGG the same measures were -0.706 ± 0.1 and -0.878 ± 0.13.
On the same counts, the results for CGAUAGCAAUAUUACGUGGC are -2.8 ± 0.21 and -3.36 ± 0.46.
